# Measured values from US20180273621A1 (AstraZeneca / MedImmune, published 2018).
# Numbering of substitutions follows the chain as printed.
# B1: afucosylated 16C4 anti-CD19 antibody (antibody, human IgG1, V domains shown)
# VH: EVQLVESGGGLVQPGGSLRLSCAASGFTFSSSWMNWVRQAPGKGLEWVGRIYPGDGDTNYNVKFKGRFTISRDDSKNSLYLQMNSLKTEDTAVYYCARSGFITTVRDFDYWGQGTLVTVSS
# VL: EIVLTQSPDFQSVTPKEKVTITCRASESVDTFGISFMNWFQQKPDQSPKLLIHEASNQGSGVPSRFSGSGSGTDFTLTINSLEAEDAATYYCQQSKEVPFTFGGGTKVEIK
# modifications: afucosylated Fc N-glycan (as for 3649-aFuc)
# B2: 3C3 affinity matured Fab (16C4 variant) (Fab, V domains shown)
# VH: B1 VH with S32V
# VL: B1 VL with T31H, M37I, Q58P, G59Y, Q93A, F100I
# notes: Fab
# B3: 5C4 affinity matured Fab (Fab, V domains shown)
# VH: B1 VH with S32V
# VL: B1 VL with D30I, M37I, Q58P, G59Y, Q93A, S95T, E97R
# notes: Fab
# B4: 6C11 affinity matured Fab (Fab, V domains shown)
# VH: B1 VH with S32V, P53L
# VL: B1 VL with Q58P, S95T, E97R
# notes: Fab
# B5: 16C4 Fab (Fab, V domains shown)
# VH: B1 VH
# VL: B1 VL
# notes: Fab with human γ1 CH1 and human kappa constant domain; also called Clone 16C4; 16C4sup
# B6: 16C4 affinity matured anti-CD19 IgG antibody (antibody, V domains shown)
# VH: B1 VH
# VL: B1 VL
# B7: 64D4 affinity matured Fab (16C4 variant, VH CDR2 Pro > Leu at 52A) (Fab, V domains shown)
# VH: B1 VH with P53L
# VL: B1 VL
# notes: Fab with human γ1 CH1 and human kappa constant domain; position is Kabat
# B8: afucosylated 3649 anti-CD19 antibody (antibody, human IgG1, V domains shown)
# VH: B1 VH with V62G, R106L
# VL: B1 VL with E54A
# modifications: complex N-glycoside-linked sugar chains linked to Asn297 of the Fc region in which fucose is not bound to N-acetylglucosamine in the reducing end
# B9: humanized anti-CD19 antibody #1 comprising HB12B-(3-72/JH4) VH and HB12B-364987 VK (antibody, human IgG1, V domains shown)
# VH: B1 VH with V62G, R106L
# VL: B1 VL with E54A, Y91F
# notes: Human IgG1/kappa constant regions; also called humanized HB12B antibody #1
# B10: humanized anti-CD19 antibody #2 comprising HB12B-(3-72/JH4) VH, HB12B-3649 VK, and IgG1 heavy chain constant region (antibody, V domains shown)
# VH: B1 VH with V62G, R106L
# VL: B1 VL with E54A
# notes: also called humanized HB12B antibody #2
# B11: Chimeric HB12B antibody comprising HB12B VH and HB12B VK (antibody, human IgG1, V domains shown)
# VH: QVQLQQSGPELVKPGASVKISCKASGYAFSSSWMNWVIQRPGQGLEWIGRIYPGDGDTNYNGKFKGKATLTADKSSSTAYMQLSSLTSVDSAVYFCARSGFITTVLDFDYWGHGTTLTVSS
# VL: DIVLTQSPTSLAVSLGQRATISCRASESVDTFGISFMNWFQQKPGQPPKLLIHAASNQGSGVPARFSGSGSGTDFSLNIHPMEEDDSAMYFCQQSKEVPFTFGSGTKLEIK
# notes: also called chHB12B; chimeric anti-CD19 antibody
# Legend:
# [1] = target: T1, human CD19 antigen (human, UniProt P15391 20-556); test: cell-based or functional assay
# T1 sequence (looked up): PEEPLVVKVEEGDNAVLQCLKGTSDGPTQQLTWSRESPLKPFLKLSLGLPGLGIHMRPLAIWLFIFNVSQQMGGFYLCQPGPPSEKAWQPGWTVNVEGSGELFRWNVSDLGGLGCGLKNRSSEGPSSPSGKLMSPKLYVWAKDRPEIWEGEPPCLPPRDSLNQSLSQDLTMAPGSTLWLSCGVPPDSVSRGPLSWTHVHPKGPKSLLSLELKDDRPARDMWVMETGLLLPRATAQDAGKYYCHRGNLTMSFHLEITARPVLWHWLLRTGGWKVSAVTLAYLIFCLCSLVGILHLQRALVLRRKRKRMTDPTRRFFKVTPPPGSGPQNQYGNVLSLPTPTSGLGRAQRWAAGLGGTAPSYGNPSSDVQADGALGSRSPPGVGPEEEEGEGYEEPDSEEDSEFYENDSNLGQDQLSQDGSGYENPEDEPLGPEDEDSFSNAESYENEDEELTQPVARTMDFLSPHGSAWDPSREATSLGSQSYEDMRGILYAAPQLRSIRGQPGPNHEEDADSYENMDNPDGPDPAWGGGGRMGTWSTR
# [2] = target: T1, human CD19 antigen; test: cell based ECL binding assay (Meso Scale Discovery; Lu et al. 2006) on 300B4 cells as titled on the sheet, Fab supernatant, signal in Units
# Procedure: (§1) CDR specific phage display libraries were generated as described above. Libraries were screened by testing a large number of phage clones (approximately 400 clones per library) in single point cell based binding assay (Lu et al., J. Immunol. Methods 314:74-79 (2006)). Reagents and disposables were purchased from Meso Scale Discovery; assays were performed following the manufacturer's instructions.
# (§2) Combinatorial phage display libraries were prepared as described above. Individual Fab clones from the combinatorial library were tested for binding to 300B4 and Raji cells (Lu et al., J. Immunol. Methods 314:74-79 (2006)).
# [3] = target: T1, human CD19 antigen; test: cell based ECL binding assay (Meso Scale Discovery; Lu et al. 2006) on Raji cells as titled on the sheet, Fab supernatant, signal in Units
# Procedure: as §1, §2
# [4] = target: T1, human CD19 antigen; test: cell based ECL binding assay (Meso Scale Discovery; Lu et al. 2006) on 300B4 cells expressing recombinant human CD19, Fab supernatant, signal in Units
# Procedure: as §1
# [5] = target: T1, human CD19 antigen; test: cell based ELISA on 300B4 cells expressing recombinant human CD19, OD450
# Procedure: (§3) 300B4 cells were cultured according to standard protocols in RPMI 1640 medium containing L-glutamine and supplemented with 10% Fetal Calf Serum, β-mercaptoethanol in the presence of 1 mg/ml G418. A standard ELISA protocol can be used for the cell based CD19 binding assay. […] Binding reactions are performed in triplicates for each antibody concentration tested. Negative control wells using an isotype matched antibody of irrelevant specificity should be included in the assay. Following incubation with the antibody 300B4 cells are washed three times with 200 micro liter of ELISA buffer. The amount of chimeric, humanized, or human anti-CD19 antibodies bound to 300B4 cells can be detected using a goat anti-human kappa antibody conjugated with horseradish peroxidase according to standard protocols.
# [6] = target: T1, human CD19 antigen; test: as above; remark: listed apart in the source
# Procedure: as §3
# An isotype matched human antibody of irrelevant specificity was included in the assay as a negative control.
binder,measurement,setting,value
B1,"% max. cell kill at 10 ug/ml, DB target cells",[1],34%
same,"% max. cell kill at 10 ug/ml, Daudi target cells",[1],50%
same,"% max. cell kill at 10 ug/ml, Farage target cells",[1],48%
same,"% max. cell kill at 10 ug/ml, Granta-519 target cells",[1],6%
same,"% max. cell kill at 10 ug/ml, Karpas-422 target cells",[1],62%
same,"% max. cell kill at 10 ug/ml, Karpas-1106P target cells",[1],59%
same,"% max. cell kill at 10 ug/ml, Nalm-6 target cells",[1],35%
same,"% max. cell kill at 10 ug/ml, Namalwa target cells",[1],23%
same,"% max. cell kill at 10 ug/ml, Oci-LY19 target cells",[1],47%
same,"% max. cell kill at 10 ug/ml, RL target cells",[1],45%
same,"% max. cell kill at 10 ug/ml, Raji target cells",[1],43%
same,"% max. cell kill at 10 ug/ml, Toledo target cells",[1],48%
same,"ADCC EC50, Daudi target cells",[1],0.0031 ng/mL
same,"ADCC EC50, Farage target cells",[1],0.0141 ng/mL
same,"ADCC EC50, Karpas-422 target cells",[1],0.0181 ng/mL
same,"ADCC EC50, Karpas-1106P target cells",[1],0.009 ng/mL
same,"ADCC EC50, Nalm-6 target cells",[1],0.0199 ng/mL
same,"ADCC EC50, Namalwa target cells",[1],0.012 ng/mL
same,"ADCC EC50, Oci-LY19 target cells",[1],0.0163 ng/mL
same,"ADCC EC50, RL target cells",[1],0.0073 ng/mL
same,"ADCC EC50, Raji target cells",[1],0.003 ng/mL
same,"ADCC EC50, Toledo target cells",[1],0.0075 ng/mL
B2,EC50 (read off the curve),[2],~400 ng/mL
same,EC50 (read off the curve),[3],~300 ng/mL
B3,EC50 (read off the curve),[2],~400 ng/mL
B4,EC50 (read off the curve),[2],~500 ng/mL
B5,EC50 (read off the curve),[4],~1000 ng/mL
B6,"% max. cell kill at 10 ug/ml, DB target cells",[1],6%
same,"% max. cell kill at 10 ug/ml, Daudi target cells",[1],16%
same,"% max. cell kill at 10 ug/ml, Farage target cells",[1],13%
same,"% max. cell kill at 10 ug/ml, Granta-519 target cells",[1],0%
same,"% max. cell kill at 10 ug/ml, Karpas-422 target cells",[1],6%
same,"% max. cell kill at 10 ug/ml, Karpas-1106P target cells",[1],16%
same,"% max. cell kill at 10 ug/ml, Nalm-6 target cells",[1],17%
same,"% max. cell kill at 10 ug/ml, Namalwa target cells",[1],4%
same,"% max. cell kill at 10 ug/ml, Oci-LY19 target cells",[1],6%
same,"% max. cell kill at 10 ug/ml, RL target cells",[1],15%
same,"% max. cell kill at 10 ug/ml, Raji target cells",[1],26%
same,"% max. cell kill at 10 ug/ml, Toledo target cells",[1],12%
same,"ADCC EC50, Daudi target cells",[1],0.0576 ng/mL
same,"ADCC EC50, Farage target cells",[1],0.0927 ng/mL
same,"ADCC EC50, Karpas-1106P target cells",[1],0.533 ng/mL
same,"ADCC EC50, RL target cells",[1],0.0393 ng/mL
same,"ADCC EC50, Raji target cells",[1],0.012 ng/mL
same,"ADCC EC50, Toledo target cells",[1],0.0545 ng/mL
B7,EC50 (read off the curve),[4],~1000 ng/mL
B8,"% max. cell kill at 10 ug/ml, DB target cells",[1],42%
same,"% max. cell kill at 10 ug/ml, Daudi target cells",[1],51%
same,"% max. cell kill at 10 ug/ml, Farage target cells",[1],48%
same,"% max. cell kill at 10 ug/ml, Granta-519 target cells",[1],9%
same,"% max. cell kill at 10 ug/ml, Karpas-422 target cells",[1],64%
same,"% max. cell kill at 10 ug/ml, Karpas-1106P target cells",[1],59%
same,"% max. cell kill at 10 ug/ml, Nalm-6 target cells",[1],39%
same,"% max. cell kill at 10 ug/ml, Namalwa target cells",[1],25%
same,"% max. cell kill at 10 ug/ml, Oci-LY19 target cells",[1],54%
same,"% max. cell kill at 10 ug/ml, RL target cells",[1],46%
same,"% max. cell kill at 10 ug/ml, Raji target cells",[1],44%
same,"% max. cell kill at 10 ug/ml, Toledo target cells",[1],53%
same,"ADCC EC50, Daudi target cells",[1],0.0576 ng/mL
same,"ADCC EC50, Farage target cells",[1],0.0536 ng/mL
same,"ADCC EC50, Karpas-422 target cells",[1],0.0442 ng/mL
same,"ADCC EC50, Karpas-1106P target cells",[1],0.0142 ng/mL
same,"ADCC EC50, Nalm-6 target cells",[1],0.0605 ng/mL
same,"ADCC EC50, Namalwa target cells",[1],0.04 ng/mL
same,"ADCC EC50, Oci-LY19 target cells",[1],0.0518 ng/mL
same,"ADCC EC50, RL target cells",[1],0.0194 ng/mL
same,"ADCC EC50, Raji target cells",[1],0.009 ng/mL
same,"ADCC EC50, Toledo target cells",[1],0.0155 ng/mL
B9,EC50 (read off the curve),[5],~70 ng/mL
same,EC50 (read off the curve),[6],~200 ng/mL
B10,EC50 (read off the curve),[5],~80 ng/mL
B11,EC50 (read off the curve),[5],~80 ng/mL
same,EC50 (read off the curve),[6],~200 ng/mL
